Reference: publication PMC7116351 (Protein expression and purification, 2019)

Biological target: the molecule itself
Test: SEC

B1: MgtE Mg2+ channel from Thermus thermophilus (wild type) (natural protein, UniProt Q5SMG8 1-450, looked up)
chain: MEEKLAVSLQEALQEGDTRALREVLEEIHPQDLLALWDELKGEHRYVVLTLLPKAKAAEVLSHLSPEEQAEYLKTLPPWRLREILEELSLDDLADALQAVRKEDPAYFQRLKDLLDPRTRAEVEALARYEEDEAGGLMTPEYVAVREGMTVEEVLRFLRRAAPDAETIYYIYVVDEKGRLKGVLSLRDLIVADPRTRVAEIMNPKVVYVRTDTDQEEVARLMADYDFTVLPVVDEEGRLVGIVTVDDVLDVLEAEATEDIHKLGAVDVPDLVYSEAGPVALWLARVRWLVILILTGMVTSSILQGFESVLEAVTALAFYVPVLLGTGGNTGNQSATLIIRALATRDLDLRDWRRVFLKEMGVGLLLGLTLSFLLVGKVYWDGHPLLLPVVGVSLVLIVFFANLVGAMLPFLLRRLGVDPALVSNPLVATLSDVTGLLIYLSVARLLLEAV
- stoichiometry N: 2
